Results: US20050287522A1

Legend:
[1] = biological target: tEGFR-ω fusion (extracellular and transmembrane regions of the EGF receptor fused to the ω fragment); assay: cell-based or functional assay
[2] = biological target: ω-NLS (ω fragment fused to a triplet SV40 nuclear localization signal); assay: cell-based or functional assay
ω-NLS (ω fragment fused to a triplet SV40 nuclear localization signal), sequence (P00722 other isoform, or with tags, fused parts or gaps): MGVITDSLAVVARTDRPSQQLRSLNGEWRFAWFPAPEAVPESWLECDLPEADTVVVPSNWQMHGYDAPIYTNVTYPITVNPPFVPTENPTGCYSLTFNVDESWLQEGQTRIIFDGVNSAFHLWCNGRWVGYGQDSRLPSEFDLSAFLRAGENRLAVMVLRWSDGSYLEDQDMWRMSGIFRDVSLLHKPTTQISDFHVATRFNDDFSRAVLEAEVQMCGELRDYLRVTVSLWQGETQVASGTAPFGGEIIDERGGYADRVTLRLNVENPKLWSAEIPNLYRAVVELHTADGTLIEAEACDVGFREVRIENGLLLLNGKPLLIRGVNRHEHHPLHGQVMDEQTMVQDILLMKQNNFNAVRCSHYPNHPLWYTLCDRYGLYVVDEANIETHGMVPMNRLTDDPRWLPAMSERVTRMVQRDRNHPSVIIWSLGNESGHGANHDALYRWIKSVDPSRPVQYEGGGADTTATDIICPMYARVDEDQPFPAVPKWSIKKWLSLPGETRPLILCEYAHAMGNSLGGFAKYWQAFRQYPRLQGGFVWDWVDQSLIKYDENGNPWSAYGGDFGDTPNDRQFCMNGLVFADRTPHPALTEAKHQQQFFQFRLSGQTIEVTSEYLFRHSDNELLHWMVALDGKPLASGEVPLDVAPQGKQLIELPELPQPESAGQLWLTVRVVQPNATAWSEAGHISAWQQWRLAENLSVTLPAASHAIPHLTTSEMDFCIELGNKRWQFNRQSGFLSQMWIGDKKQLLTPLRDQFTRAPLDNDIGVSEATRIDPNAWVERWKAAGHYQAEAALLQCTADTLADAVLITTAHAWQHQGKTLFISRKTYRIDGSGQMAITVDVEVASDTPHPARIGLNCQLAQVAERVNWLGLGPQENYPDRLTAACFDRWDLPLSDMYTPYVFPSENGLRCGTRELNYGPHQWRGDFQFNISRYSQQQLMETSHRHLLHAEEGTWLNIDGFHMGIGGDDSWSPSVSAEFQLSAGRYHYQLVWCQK

tEGFR-ω fusion (extracellular and transmembrane regions of the EGF receptor fused to the ω fragment), sequence (P00722 other isoform, or with tags, fused parts or gaps): as above

Substance: C1A domain of PKCγ fused to GFP-α (wild type α peptide) (from UniProt P42212 1-238)
- increase in β-galactosidase activity on PMA (NIH 3T3 cells, membrane translocation assay) [1]: < 10 % increase

Substance: PH domain of AKT fused to the GFP-α chimera (from UniProt P42212 1-238)
- increase in β-galactosidase activity on PDGF, luminescent assay in 3T3 cells [1]: 5 fold
- increase in β-galactosidase activity on insulin, luminescent assay in 3T3 cells [1]: 2.5 fold
- increase in β-galactosidase activity on osmotic shock (sorbitol), luminescent assay in 3T3 cells [1]: 8 fold

Substance: C1A domain of PKCγ fused to the GFP-α H31R point mutant (from UniProt P42212 1-238)
- fold induction of β-galactosidase activity on PMA (NIH 3T3 cells, membrane translocation assay) (fold induction) [1]: 7

Substance: NES-GFP-α-NLS protein (MEK nuclear export signal, GFP, α peptide, triplet SV40 NLS) (from UniProt P42212 1-238)
- β-galactosidase activity after leptomycin B (loss of signal assay) (fold decrease) [1]: 5
- β-galactosidase activity after leptomycin B for 2 hours (gain of signal assay, luminescent substrate) (fold increase) [2]: 3.5

Substance: glucocorticoid receptor fused to the amino-terminus of the GFP-α fusion (from UniProt P42212 1-238)
- change in β-galactosidase activity with dexamethasone, DDAO substrate, flow cytometry of live cells [1]: 5 to 10 fold change
- difference in β-galactosidase activity at 30 min of dexamethasone (loss of signal assay) [1]: 25%
- β-galactosidase activity after 1 µM dexamethasone for 3 hours (loss of signal assay) [1]: 5 fold
- change in β-galactosidase activity with dexamethasone, DDAO substrate, flow cytometry of live cells [2]: 5 to 10 fold change
- difference in β-galactosidase activity at 30 min of dexamethasone (gain of signal assay) [2]: 100%
- β-galactosidase activity after 1 µM dexamethasone for 3 hours (gain of signal assay) (fold induction) [2]: 3.5
